In the RNAGym collection of RNA variant scans (doi:10.7554/elife.80360):

B1: HDV Ribozyme (parent)
chain: GGCCGGCAUGGUCCCAGCCUCCUCGCUGGCGCCGGCUGGGCAACAUUCCGAGGGGACCGUCCCCUCGGUAAUGGCGAAUGGGACCCA

Variants of: B1
Assay: self-cleavage, relative activity (ratio to wild type); higher = more cleavage; co-transcriptional

Row | Variant | self-cleavage
1 | GGCCGGCAUGGUCCCAGCCUCCUAGCUGACGCCGGCUGGGCAACAUUCCGAGGGGACCGUCCCCUCGGUAAUGGCGAAUGGGACCCA | 0.106
2 | GGCCGGCAUGGUCCCAGCCUCCUAGCUGGCGCCGGCUGGGCAACAUUCCGAGGGGACCGCCCCCUCGGUAAUGGCGAAUGGGACCCA | 0.702
3 | GGCCGGCAUGGUCCCAGCCUCCUAGCUGGCGCCGGCUGGGCAACAUUCCGAGGGGACCGGCCCCUCGGUAAUGGCGAAUGGGACCCA | 0.678
4 | GGCCGGCAUGGUCCCAGCCUCCUAGCUGGCGCCGGCUGGGCAACAUUCCGAGGGGACCGUCCCCUCGGUAAUGGCGAAUGGGAACCA | 0.787
5 | GGCCGGCAUGGUCCCAGCCUCCUAGCUGGCGCCGGCUGGGCAACAUUCCGAGGGGACCUUCCCCUCGGUAAUGGCGAAUGGGACCCA | 0.783
6 | GGCCGGCAUGGUCCCAGCCUCCUAGCUGGCACCGGCUGGGCAACAUUCCGAGGGGACCGUCCCCUCGGUAAUGGCGAAUGGGACCCA | 0.0332
7 | GGCCGGCAUGGUCCCAGCCUCCUAGCUGGCUCCGGCUGGGCAACAUUCCGAGGGGACCGUCCCCUCGGUAAUGGCGAAUGGGACCCA | 0.0519
8 | GGCCGGCAUGGUCCCAGCCUCCUAGCUGGCGCCGGCUGGGCAACAUUCCGAGGGGACCGUCCCCUCGGUAAUGGCGAAUAGGACCCA | 0.131
9 | GGCCGGCAUGGUCCCAGCCUCCUAGCUGGCGCCGGCUGGGCAACAUUCCGAGGGGACCGUCCCCUCGGUAAUGGCGAAUCGGACCCA | 0.262
10 | GGCCGGCAUGGUCCCAGCCUCCUAGCUGGCGCCGGCUGGGCAACAUUCCGAGGGGACCGUCCCCUCGGUAAGGGCGAAUGGGACCCA | 0.364
11 | GGCCGGCAUGGUCCCAGCCUCCUAGCUGGCGCCGGCUGGGCAACAUUCCGAGGGGACCGUCCCCUCGGUAACGGCGAAUGGGACCCA | 0.253
12 | GGCCGGCAUGGUCCCAGCCUCCUAGCUGGCGCCGGCUGGGCAACAUUCCGAGGGGACCGUCCCCUUGGUAAUGGCGAAUGGGACCCA | 0.69
13 | GGCCGGCAUGGUCCCAGCCUCCUAACUGGCGCCGGCUGGGCAACAUUCCGAGGGGACCGUCCCCUCGGUAAUGGCGAAUGGGACCCA | 0.102
14 | GGCCGGCAUGGUCCCAGCCUCCUAGCUGGCGCCGGCUGGGCAACAUUCCGAGGUGACCGUCCCCUCGGUAAUGGCGAAUGGGACCCA | 0.736
15 | GGCCGGCAUGGUCCCAGCCUCCUAGCUGGCGCCGGCUGGGCAACAUUCCGAGGGGACCGUCCCCUCGGUAAUUGCGAAUGGGACCCA | 0.288
16 | GGCCGGCAUGGUCCCAGCCUCCUAGCUGGCGCCGGCUGGGCAACAUUCCGAGGGGACCGUCCCCUCGGUAAUAGCGAAUGGGACCCA | 0.234
17 | GGCCGGCAUGGUCCCAGCCUCCUAGCUGGCGCCGGCUGGGCAACAUUCCGAGGGGACCGUCCCCUCGGUAAUCGCGAAUGGGACCCA | 0.211
18 | GGCCGGCAUGGUCCCAGCCUCCUGGCUGGCGCCGGCUGGGCAACAUUCCGGGGGGACCGUCCCCUCGGUAAUGGCGAAUGGGACCCA | 0.111
19 | GGCCGGCAUGGUCCCAGCCUCCUGGCUGGCGCCGGCUGGGCAACAUUCCGUGGGGACCGUCCCCUCGGUAAUGGCGAAUGGGACCCA | 0.237
20 | GGCCGGCAUGGUCCCAGCCUCCUAGCUGGCGCCGGCUAGGCAACAUUCCGAGGGGACCGUCCCCUCGGUAAUGGCGAAUGGGACCCA | 0.208
21 | GGCCGGCAUGGUCCCAGCCUCCUAGCUGGCGCCGGCUCGGCAACAUUCCGAGGGGACCGUCCCCUCGGUAAUGGCGAAUGGGACCCA | 0.199
22 | GGCCGGCAUGGUCCCAGCCUCCUGGCUGGCGCCGGCUGGGCAGCAUUCCGAGGGGACCGUCCCCUCGGUAAUGGCGAAUGGGACCCA | 0.0354

Row | Variant | self-cleavage
23 | GGCCGGCAUGGUCCCAGCCUCCUGGCUGGCGCCGGCUGGGCAUCAUUCCGAGGGGACCGUCCCCUCGGUAAUGGCGAAUGGGACCCA | 0.0237
24 | GGCCGGCAUGGUCCCAGCCUCCUGGCUGGCGCCGGCUGGGCACCAUUCCGAGGGGACCGUCCCCUCGGUAAUGGCGAAUGGGACCCA | 0.0811
25 | GGCCGGCAUGGUCCCAGCCUCCUGGCUGGCGCCGGCUGGGCAACAUUCCGAGGGGACCGUCCCCUCGGUUAUGGCGAAUGGGACCCA | 0.0627
26 | GGCCGGCAUGGUCCCAGCCUCCUGGCUGGCGCCGGCUGGGCAACAUUCCGAGGGGACCGUCCCCUCGGUCAUGGCGAAUGGGACCCA | 0.0978
27 | GGCCGGCAUGGUCCCAGCCUCCUAGCUGGCGCCGGCUGGGCAACAUUCCGAGGGGACCGUCCCCUCAGUAAUGGCGAAUGGGACCCA | 0.802
28 | GGCCGGCAUGGUCCCAGCCUCCUAGCUGGCGCCGGCUGGGCAACAUUCCGAGGGGACCGUCCCCUCUGUAAUGGCGAAUGGGACCCA | 0.831
29 | GGCCGGCAUGGUCCCAGCCUCCUAGCUGGCGCCGGCAGGGCAACAUUCCGAGGGGACCGUCCCCUCGGUAAUGGCGAAUGGGACCCA | 0.145
30 | GGCCGGCAUGGUCCCAGCCUCCUAGCUGGCGCCGGCGGGGCAACAUUCCGAGGGGACCGUCCCCUCGGUAAUGGCGAAUGGGACCCA | 0.142
31 | GGCCGGCAUGGUCCCAGCCUCCUAGCUGGCGCCGGCCGGGCAACAUUCCGAGGGGACCGUCCCCUCGGUAAUGGCGAAUGGGACCCA | 0.974
32 | GGCCGGCAUGGUCCCAGCCUCCUAGCUGGCGCCGGCUGGGCAACAUUCCGAGGGGACCGUCCCCUCGGAAAUGGCGAAUGGGACCCA | 0.635
33 | GGCCGGCAUGGUCCCAGCCUCCUAGCGGGCGCCGGCUGGGCAACAUUCCGAGGGGACCGUCCCCUCGGUAAUGGCGAAUGGGACCCA | 0.415
34 | GGCCGGCAUGGUCCCAGCCUCCUAGCUGGCGCCGGCUGGACAACAUUCCGAGGGGACCGUCCCCUCGGUAAUGGCGAAUGGGACCCA | 0.809
35 | GGCCGGCAUGGUCCCAGCCUCCUAGCUGGCGCCGGCUGGCCAACAUUCCGAGGGGACCGUCCCCUCGGUAAUGGCGAAUGGGACCCA | 0.117
36 | GGCCGGCAUGGUCCCAGCCUCCUAGCUGGCGCCGGCUGGGCAACAUUCCGAGGGCACCGUCCCCUCGGUAAUGGCGAAUGGGACCCA | 0.818
37 | GGCCGGCAUGGUCCCAGCCUCCUAGCUGGCGCCGGCUGGGCAACAUUCCGACGGGACCGUCCCCUCGGUAAUGGCGAAUGGGACCCA | 0.803
38 | GGCCGGCAUGGUCCCAGCCUCCUAGCUGGCGCCGGCUGGGCAACAUUCCGAAGGGACCGUCCCCUCGGUAAUGGCGAAUGGGACCCA | 1.1
39 | GGCCGGCAUGGUCCCAGCCUCCUAGCUGGCGCCGGCUGGGCAACAUUCCGAGGGGACCGUCCCCUCGCUAAUGGCGAAUGGGACCCA | 0.628
40 | GGCCGGCAUGGUCCCAGCCUCCUGGCUGGCGCCGGCUGGGCAACGUUCCGAGGGGACCGUCCCCUCGGUAAUGGCGAAUGGGACCCA | 0.222
41 | GGCCGGCAUGGUCCCAGCCUCCUGGCUGGCGCCGGCUGGGCAACCUUCCGAGGGGACCGUCCCCUCGGUAAUGGCGAAUGGGACCCA | 0.0302
42 | GGCCGGCAUGGUCCCAGCCUCCUAGCUGGCGCCGGCUGGGCAACAUUCCGAGGGGACCGUCCCCUCGGUAAUGGCCAAUGGGACCCA | 0.936
43 | GGCCGGCAUGGUCCCAGCCUCCUAGCUGGCGCCGGCUGGGCAACAUUCCGAGGGGACCGUCCCCUCGGUAAUGGCUAAUGGGACCCA | 0.842
44 | GGCCGGCAUGGUCCCAGCCUCCUAGCUGGCGCCGGCUGGGCAACAUUCCGAGGGGACCGUCCCCUCGGUAAUGGCAAAUGGGACCCA | 0.769

Row | Variant | self-cleavage
45 | GGCCGGCAUGGUCCCAGCCUCCUAGCUGGCGCCGGCUGGGCAACAUUCCAAGGGGACCGUCCCCUCGGUAAUGGCGAAUGGGACCCA | 0.688
46 | GGCCGGCAUGGUCCCAGCCUCCUAGCUGGCGCCGGCUGGGCAACAUUCCUAGGGGACCGUCCCCUCGGUAAUGGCGAAUGGGACCCA | 0.641
47 | GGCCGGCAUGGUCCCAGCCUCCUAGCUGGCGCCGUCUGGGCAACAUUCCGAGGGGACCGUCCCCUCGGUAAUGGCGAAUGGGACCCA | 0.298
48 | GGCCGGCAUGGUCCCAGCCUCCUAGCUGGCGCCGGCUGGGCAACAAUCCGAGGGGACCGUCCCCUCGGUAAUGGCGAAUGGGACCCA | 0.213
49 | GGCCGGCAUGGUCCCAGCCUCCUAGCUGGCGCCGGCUGGGCAACAUUCCGAGGGGACCGUCCCCACGGUAAUGGCGAAUGGGACCCA | 0.735
50 | GGCCGGCAUGGUCCCAGCCUCCUAGCUGGCGCCGGCUGGGCAACAUUCCGAGGGGACCGUCCCCGCGGUAAUGGCGAAUGGGACCCA | 0.511
51 | GGCCGGCAUGGUCCCAGCCUCCUAGCUGGCGCCGGCUGGGCAACAUUCCGAGGGGACCGUCCCCUCGGUAAUGACGAAUGGGACCCA | 0.12
52 | GGCCGGCAUGGUCCCAGCCUCCUAGCUGGCGCCGGCUGGGCAACAUUCCGAGGGGACCGUCCCCUCGGUAAUGUCGAAUGGGACCCA | 0.16
53 | GGCCGGCAUGGUCCCAGCCUCCUGGCUGGCGCCGGCUGGGCAACAUUCCGAGGGGUCCGUCCCCUCGGUAAUGGCGAAUGGGACCCA | 0.0831
54 | GGCCGGCAUGGUCCCAGCCUCCUAGCUGGCGCCGGCUGGGCAACAUUCCGAGGGGACCGUCCCCUCGGUAAUGGAGAAUGGGACCCA | 0.219
55 | GGCCGGCAUGGUCCCAGCCUCCUAGCUGGCGCCGGCUGGGCAACAUUCCGAGGGGACCGUCCCCUCGGUAAUGGCGAAUGGCACCCA | 0.249
56 | GGCCGGCAUGGUCCCAGCCUCCUAGCUGGCGCCGGCUGGGCAACAUUCCGAGGGGACCGUCCCCUCGGUAAUGGCGAAUGGUACCCA | 0.328
57 | GGCCGGCAUGGUCCCAGCCUCCUAGCUGGCGCCGGCUGGGCAACAUUCCGAGGGGACCGUCCCCUCGGUAAUGGCGAAUGGGACUCA | 0.594
58 | GGCCGGCAUGGUCCCAGCCUCCUAGCUGGCGCCGGCUGGGCAACAUUCCGAGGGGACCGUCCCCUCGGUAAUGGCGAAUGGGACGCA | 0.69
59 | GGCCGGCAUGGUCCCAGCCUCCUAGCUGGCGCCGGCUGCGCAACAUUCCGAGGGGACCGUCCCCUCGGUAAUGGCGAAUGGGACCCA | 0.0692
60 | GGCCGGCAUGGUCCCAGCCUCCUAGCUGGCGCCGGCUGAGCAACAUUCCGAGGGGACCGUCCCCUCGGUAAUGGCGAAUGGGACCCA | 0.0779
61 | GGCCGGCAUGGUCCCAGCCUCCUAGCUGGCGCCGGCUGGGCAACAUUCCGAGGGGACCGUCCCCUCGGUAAUGGCGAACGGGACCCA | 0.12
62 | GGCCGGCAUGGUCCCAGCCUCCUAGCUGGCGCCGGCUGGGCAACAUUCCGAGGGGACCGUCCCCUCGGUAAUGGCGAAGGGGACCCA | 0.312
63 | GGCCGGCAUGGUCCCAGCCUCCUAGCUGGCGCCGGCUGGGCAACAUUCCGAGGGGACCGUCCCCUCGGUAAUGGCGAAUGGGACCGA | 0.724
64 | GGCCGGCAUGGUCCCAGCCUCCUAGCUGGCGCCGGCUGGGCAACAUUCCGAGGGGACCGUCCCCUCGGUAAUGGCGAAUGGGACCAA | 0.607
